Source: paper PMC7305985 (Molecular cell, 2020)

Target: Histone H4 N-terminal peptide, biotinylated (1–23) (UniProt P62805 2-24, biotin (position not given))
Test: pull-down

SATICRVCQKPGDLVMCNQCEFCFHLDCHLPALQDVPGEEWSCSLCHVLP (domain or fragment, UniProt Q13263 624-673, looked up) [GST-tagged KAP1 PHD (residues 624–673)]
binding result: binds
